# From patent publication US20230183379A1 (INSERM INSTITUT NATIONAL DE LA SANT ET DE LA RECHERCHE M …, published 2023)
# B1: G9 scFv2-Fc (Fc fusion)
# chain: QVQLVESGGGLVEPGGSLRLSCAASGFTFSNYAINWVRQAPGKGLEWVANIHHDGNGKYYVDSVEGRFTISRDNAKNSLYLQMDSLRAEDTAIYYCARDGYGGYLDLWGQGTLVTVSSGGGGSGGGGSGGGGSSELTQDPAVSVALGQTVRITCQGDSLRSYYASWYQQKPGQAPVLVIYGKNNRPSGIPDRFSGSGSGNTASLTITGAQAEDEADYYCAAWDDSLSGPVFGGGTKVTVLG
# notes: Bivalent (scFv)2-Fc; also called G9-Fc; not shown: Fc fragment of human IgG1 (pFUSE-hFc2(IL2ss) vector)
# B2: H7-IgG1 (full length human IgG1 anti-TfR1) (antibody, V domains shown)
# VH: QVQLQESGGGVVQPGRSLRLSCAASRFTFSSYAMHWVRQAPGKGLEWVAVISYDGSNKYYADSVKGRFTISRDNSKNTLYLQMNSLRAEDTAVYYCARDLSGYGDYPDYWGQGTLVTVSS
# VL: SELTQDPAVSVALGQTVRITCQGDSLRSYYASWYQQKPGQAPVLVMYGRNERPSGVPDRFSGSKSGTSASLAISGLQPEDEANYYCAGWDDSLTGPVFGGGTKLTVLG
# notes: also called H7-anti-TfR1 IgG1
# B3: H9 scFv2-Fc (Fc fusion)
# chain: QVQLAESGGGLVKPGGSLRLSCAASGFTFSDYYMSWIRQAPGKGLEWVSYISTSGSSIYYVDSVKGRFTISRDNAKNSLYLQMDSLRDDDTAVYYCARDLHGDYAFDSWGQGTLVTVSSGGGGSGGGGSGGGGSSELTQDPAVSVALGQTVRITCQGDSLRSYYASWYQQKPGQAPVLVIYGKNNRPSGIPDRFSGSKSGNSASLDISGLQSEDEADYYCATWDDNLSGPIFGGGTKVTVLG
# notes: Bivalent (scFv)2-Fc; also called H9-Fc; not shown: Fc fragment of human IgG1 (pFUSE-hFc2(IL2ss) vector)
# B4: F12-IgG1 (IgG1 anti-TfR1 F12 antibody) (antibody, V domains shown)
# VH: QVQLQESGGGLVQPGGSLRLSCAASGFSFNTYTMHWVRQAPGKGLEWVADIAYDGSTKYYADSVKGRFTISRDNAKNSLYLQMNSLRAEDTAVYYCARDAVAGEGYFDLWGRGTLVTVSS
# VL: QSALTQDPAVSVALGQTVRITCQGDSLRSYYASWYQQLPGTAPKLLIYRNNQRPSGVPDRFSGSKSGTSASLAISGLRSEDEADYYCAAWDDSLSAWVFGGGTKLTVLG
# notes: Human IgG1; Produced as monoclonal control beside the tetravalent BsAb; also called F12 (anti TfR1 Human IgG1); parental mAb anti-TfR1 F12
# B5: H7-scFv2 (50 kD dimeric (scFv)2 H7 antibody) (scFv)
# scFv: QVQLQESGGGVVQPGRSLRLSCAASRFTFSSYAMHWVRQAPGKGLEWVAVISYDGSNKYYADSVKGRFTISRDNSKNTLYLQMNSLRAEDTAVYYCARDLSGYGDYPDYWGQGTLVTVSSGGGGSGGGGSGGGGSSELTQDPAVSVALGQTVRITCQGDSLRSYYASWYQQKPGQAPVLVMYGRNERPSGVPDRFSGSKSGTSASLAISGLQPEDEANYYCAGWDDSLTGPVFGGGTKLTVLG
# B6: scFv-Fc bispecific antibody (anti-TfR1 scFv / anti-IL-6 scFv, knob into hole Fc) (bispecific antibody)
# chain 1: B5 scFv
# chain 2: EVQLVQSGGGVVQPGESLRLSCAASGFTFSSYSMNWVRQAPGKGLEWVSVIYSGGSTYYADSVKGRFTISRDNSKNTLYLQMNSLRAEDTAVYYCAREVYHSSGYDDAFDIWGRGTMVTVSSGGGGSGGGGSGGGGSDIQMTQSPSTLSASIGDRVTITCRASEGIYHWLAWYQQKPGKAPKLLIYKASSLASGAPSRFSGSGSGTDFTLTISSLQPDDFATYYCQQYSNYPLTFGGGTKLEIK
# B7: H7 scFv2-Fc (H7-Fc) (Fc fusion)
# chain: B5 scFv
# notes: Bivalent 100 kD (scFv)2-Fc made in HEK-293 T cells; not shown: Fc fragment of human IgG1 (pFUSE-hFc2(IL2ss) vector)
# B8: H7-scFv (monovalent) (scFv)
# scFv: B5 scFv
# B9: F12 scFv2-Fc (Fc fusion)
# chain: QVQLQESGGGLVQPGGSLRLSCAASGFSFNTYTMHWVRQAPGKGLEWVADIAYDGSTKYYADSVKGRFTISRDNAKNSLYLQMNSLRAEDTAVYYCARDAVAGEGYFDLWGRGTLVTVSSGGGGSGGGGSGGGGSQSALTQDPAVSVALGQTVRITCQGDSLRSYYASWYQQLPGTAPKLLIYRNNQRPSGVPDRFSGSKSGTSASLAISGLRSEDEADYYCAAWDDSLSAWVFGGGTKLTVLGA
# notes: Bivalent (scFv)2-Fc; also called F12-Fc; not shown: Fc fragment of human IgG1 (pFUSE-hFc2(IL2ss) vector)
# B10: C32-IgG1 (antibody, V domains shown)
# VH: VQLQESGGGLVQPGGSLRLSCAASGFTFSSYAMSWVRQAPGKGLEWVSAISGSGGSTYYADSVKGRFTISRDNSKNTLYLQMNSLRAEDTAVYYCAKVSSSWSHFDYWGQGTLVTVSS
# VL: DVVMTQSPSTLSASVGDRVTITCRASQYISNWLAWYQQKPGKAPKLLIYKASSLESGVPSRFSGSGSGTEFTLTISSLQPEDFATYYCQESYNTPLFTFGPGTKLEIKR
# notes: Full length human IgG1; also called C32 (IgG1 format)
# B11: F2 scFv2-Fc (Fc fusion)
# chain: QVQLQQSGGGVVQPGGSLRLSCAASEFTFSASGMHWVRQAPGKGLEWMAFIAYDGNQKFYADSVKGRFTISRDNSKNTLYLQMDSLRGEDTAVYYCAKEMQREGYFDYWGQGTLVTVSSGGGGSGGGGSGGGGSNFMLTQDPAVSVALGQTVRITCQGDSLRSYYASWYQQKPGQAPVLVIYGKNNRPSGIPDRFSGSKSGNSASLDISGLQSEDEADYYCATWDDNLSGPIFGGGTKVTVLG
# notes: Bivalent (scFv)2-Fc; also called F2-Fc; not shown: Fc fragment of human IgG1 (pFUSE-hFc2(IL2ss) vector)
# B12: VH4 anti-IL-6 human IgG1 (antibody, V domains shown)
# VH: EVQLVQSGGGVVQPGESLRLSCAASGFTFSSYSMNWVRQAPGKGLEWVSVIYSGGSTYYADSVKGRFTISRDNSKNTLYLQMNSLRAEDTAVYYCAREVYHSSGYDDAFDIWGRGTMVTVSS
# VL: DIQMTQSPSTLSASIGDRVTITCRASEGIYHWLAWYQQKPGKAPKLLIYKASSLASGAPSRFSGSGSGTDFTLTISSLQPDDFATYYCQQYSNYPLTFGGGTKLEIK
# notes: Human IgG1; also called VH4-IgG1; anti-IL-6 VH4
# How the values were obtained:
# [1] = target: T1, transferrin receptor 1 (TfR1), human (human, UniProt P02786 1-760); experiment: FACS on human Raji cells, anti-human IgG1-FITC
# T1 construct: whole, on cells; always tested on cells; also called human TfR1; native TfR1
# [2] = target: T2, transferrin receptor 1 (TfR1), mouse (mouse, UniProt Q62351 1-763); experiment: FACS on mouse P815 cells, anti-human IgG1-FITC
# T2 construct: whole, on cells; also called mouse TfR1
# [3] = target: T1, transferrin receptor 1 (TfR1), human; experiment: cell-based or functional assay
# [4] = target: T1, transferrin receptor 1 (TfR1), human; experiment: FACS on Raji cells at 4 °C, anti-human IgG (Fc specific)-FITC
# [5] = target: T1, transferrin receptor 1 (TfR1), human; experiment: FACS on Raji cells at 4 °C
# Experimental: All incubation steps were done on ice. Raji cells (5×10^5 cells) were resuspended in 100 μL of FACS buffer [PBS, 1% FBS] containing various concentrations of the primary antibody for 1 h, washed twice with FACS buffer, and then incubated with the suitable fluorescent secondary antibody. After a final wash, cells were analyzed by FACS. The apparent affinity was determined using the GraphPad software.
# [6] = target: T2, transferrin receptor 1 (TfR1), mouse; experiment: FACS on mouse P815 cells at 4 °C
# mouse IL-6 = target: T3, mouse IL-6 (mouse, UniProt P08505 25-211); experiment: ELISA on adsorbed recombinant mouse IL-6, pH 7.4, 40 nM antibody
# T3 construct: Bought recombinant protein; also called Recombinant mouse IL-6 (Peprotech, 216-16)
# T3 sequence (looked up): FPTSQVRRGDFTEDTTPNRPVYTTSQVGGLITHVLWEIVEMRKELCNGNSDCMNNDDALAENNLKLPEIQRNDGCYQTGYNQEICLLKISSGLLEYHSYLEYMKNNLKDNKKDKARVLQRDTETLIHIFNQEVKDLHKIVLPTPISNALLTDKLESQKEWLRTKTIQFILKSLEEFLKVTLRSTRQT
# T1 sequence (P02786 whole entry): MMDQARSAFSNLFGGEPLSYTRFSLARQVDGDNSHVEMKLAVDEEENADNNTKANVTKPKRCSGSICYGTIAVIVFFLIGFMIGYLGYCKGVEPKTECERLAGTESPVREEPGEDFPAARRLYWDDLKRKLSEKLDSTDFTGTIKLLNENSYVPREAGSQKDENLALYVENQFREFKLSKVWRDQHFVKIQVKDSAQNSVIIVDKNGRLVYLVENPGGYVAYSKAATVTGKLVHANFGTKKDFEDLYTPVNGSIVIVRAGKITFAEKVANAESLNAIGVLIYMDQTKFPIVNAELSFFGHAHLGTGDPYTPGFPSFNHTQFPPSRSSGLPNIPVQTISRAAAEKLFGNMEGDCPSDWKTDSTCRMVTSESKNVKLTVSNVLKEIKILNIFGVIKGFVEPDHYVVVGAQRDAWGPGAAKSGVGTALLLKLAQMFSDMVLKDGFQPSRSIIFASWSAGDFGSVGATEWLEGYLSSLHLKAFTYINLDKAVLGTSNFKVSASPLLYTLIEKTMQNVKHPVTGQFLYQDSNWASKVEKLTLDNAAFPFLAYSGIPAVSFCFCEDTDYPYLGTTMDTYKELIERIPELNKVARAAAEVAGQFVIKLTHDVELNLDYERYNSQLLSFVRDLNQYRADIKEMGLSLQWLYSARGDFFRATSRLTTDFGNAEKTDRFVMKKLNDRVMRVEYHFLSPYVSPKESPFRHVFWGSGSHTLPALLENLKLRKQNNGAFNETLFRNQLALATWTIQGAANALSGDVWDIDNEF
# T2 sequence (Q62351 whole entry): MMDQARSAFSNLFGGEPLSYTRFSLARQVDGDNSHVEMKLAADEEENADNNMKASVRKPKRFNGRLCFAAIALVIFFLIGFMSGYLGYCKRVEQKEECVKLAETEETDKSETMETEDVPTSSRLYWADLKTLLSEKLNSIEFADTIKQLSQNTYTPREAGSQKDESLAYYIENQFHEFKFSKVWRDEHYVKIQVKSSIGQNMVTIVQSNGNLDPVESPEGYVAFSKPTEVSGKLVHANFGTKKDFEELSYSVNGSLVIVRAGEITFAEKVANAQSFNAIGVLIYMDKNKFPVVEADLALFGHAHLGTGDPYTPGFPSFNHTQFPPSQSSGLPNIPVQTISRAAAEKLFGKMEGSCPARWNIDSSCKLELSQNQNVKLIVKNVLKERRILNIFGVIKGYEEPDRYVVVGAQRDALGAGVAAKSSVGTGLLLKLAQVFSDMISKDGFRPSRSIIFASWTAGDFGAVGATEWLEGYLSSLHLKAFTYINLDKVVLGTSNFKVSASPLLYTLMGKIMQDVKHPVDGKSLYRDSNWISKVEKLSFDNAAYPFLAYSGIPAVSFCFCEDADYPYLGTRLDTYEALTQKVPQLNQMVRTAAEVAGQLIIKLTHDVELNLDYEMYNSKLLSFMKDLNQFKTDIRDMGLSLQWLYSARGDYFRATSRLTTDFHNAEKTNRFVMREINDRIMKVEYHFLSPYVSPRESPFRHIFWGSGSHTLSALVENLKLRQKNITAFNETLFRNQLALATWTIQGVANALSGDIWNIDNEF
binder,measurement,setting,value
B1,binding result,[1],binds
B2,binding result,[2],no binding
B3,binding result,[1],binds
B4,"viability of Raji cells, 3 days, IC50",[3],0.8 nM
same,"viability of XG6 and XG7 cells in 1% FCS, 3 days, IC50 of the combination F12 + VH4",[3],1 nM
same,"viability of XG6 cells, 5 days, IC50",[3],4 nM
same,EC50,[4],1 nM
B5,"ERY-1 cell viability inhibition, IC50",[3],2 nM
B6,EC50,[5],30.1 nM
B7,EC50,[6],0.8 nM
B8,"ERY-1 cell viability inhibition, IC50",[3],200 nM
B9,binding result,[2],binds
same,binding result,[1],binds
B10,binding result,[2],no binding
B11,binding result,[1],binds
B12,binding result,mouse IL-6,binds
